# Source: paper PMC3248438, “Probing the SELEX Process with Next-Generation Sequencing”
# Biological target: Streptavidin (UniProt P22629 25-183)
# Assay: SPR; kon 1.5e4 M-1 s-1, koff 2.2e-3 s-1; 1:1 Langmuir fit, chi2 0.535; 900 RU chip; Binding buffer 20 mM Tris, 140 mM NaCl, 5 mM MgCl2, 2 mM CaCl2, 2 mM KCl, 0.05% Tween 20, pH 7.4; SPR at 25 C, 30 ul/min; FLAA 1 h at room temperature
# Details: protein: commercial; chain copies: 4
# Streptavidin, sequence (P22629 25-183): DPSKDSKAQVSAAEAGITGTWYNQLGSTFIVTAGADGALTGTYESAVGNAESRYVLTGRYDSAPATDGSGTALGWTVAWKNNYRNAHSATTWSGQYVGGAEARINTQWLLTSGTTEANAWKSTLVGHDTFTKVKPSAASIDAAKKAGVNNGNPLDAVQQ
binder,measurement,value
ATCTCCGATTGCCCCACGACGCAGTGGTCGGAGTTACTTT (ssDNA) [R10#17],Kd,140 nM
